D.O 450 nm data for 1 substance are collected here from US20170267766A1.

Experiment [1] concerns the target rhIR protein (R&D Systems, cat No 1544-IR/CF) (human) (UniProt P06213). The experiment is described as follows: ELISA, coated rh Insulin R, 5 ug/ml.
The target of experiment [2] is rmIGF-1R protein (R&D Systems, cat No 6630-GR/Fc) (murine) (UniProt Q60751). The experiment is described as follows: ELISA, coated rm IGF-1R, 5 ug/ml.
For experiment [3], the target named is rhIGF-1R protein (R&D Systems, Cat No 391-GR) (human) (UniProt P08069). As to the kind of experiment: ELISA, coated rh IGF-1R, 5 ug/ml.

rmIGF-1R protein (R&D Systems, cat No 6630-GR/Fc) (murine), sequence (Q60751 31-936): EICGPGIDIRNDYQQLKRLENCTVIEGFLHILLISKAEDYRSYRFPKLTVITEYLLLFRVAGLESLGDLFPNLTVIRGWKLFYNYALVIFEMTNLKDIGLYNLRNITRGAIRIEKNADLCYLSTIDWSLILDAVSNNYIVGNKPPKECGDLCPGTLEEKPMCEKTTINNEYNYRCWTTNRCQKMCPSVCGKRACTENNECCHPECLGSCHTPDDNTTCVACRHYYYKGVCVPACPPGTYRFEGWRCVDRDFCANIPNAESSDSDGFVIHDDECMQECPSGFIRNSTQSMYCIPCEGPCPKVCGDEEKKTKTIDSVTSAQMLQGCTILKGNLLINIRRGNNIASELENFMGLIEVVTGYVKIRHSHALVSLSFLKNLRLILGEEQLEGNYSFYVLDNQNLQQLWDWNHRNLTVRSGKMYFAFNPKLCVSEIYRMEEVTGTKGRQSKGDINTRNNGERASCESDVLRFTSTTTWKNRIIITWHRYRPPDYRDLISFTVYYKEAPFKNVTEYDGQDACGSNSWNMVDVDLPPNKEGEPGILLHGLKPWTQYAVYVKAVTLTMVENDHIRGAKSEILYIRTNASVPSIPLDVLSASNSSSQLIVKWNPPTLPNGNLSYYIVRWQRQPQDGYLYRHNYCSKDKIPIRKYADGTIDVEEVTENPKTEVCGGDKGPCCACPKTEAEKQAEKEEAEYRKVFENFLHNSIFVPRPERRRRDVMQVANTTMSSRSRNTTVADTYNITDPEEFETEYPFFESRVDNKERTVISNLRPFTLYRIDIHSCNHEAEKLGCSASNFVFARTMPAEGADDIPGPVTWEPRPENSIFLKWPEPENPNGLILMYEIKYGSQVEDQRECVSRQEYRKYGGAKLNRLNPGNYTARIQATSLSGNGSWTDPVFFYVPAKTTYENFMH
rhIR protein (R&D Systems, cat No 1544-IR/CF) (human), sequence (P06213 other isoform, or with tags, fused parts or gaps limits assumed): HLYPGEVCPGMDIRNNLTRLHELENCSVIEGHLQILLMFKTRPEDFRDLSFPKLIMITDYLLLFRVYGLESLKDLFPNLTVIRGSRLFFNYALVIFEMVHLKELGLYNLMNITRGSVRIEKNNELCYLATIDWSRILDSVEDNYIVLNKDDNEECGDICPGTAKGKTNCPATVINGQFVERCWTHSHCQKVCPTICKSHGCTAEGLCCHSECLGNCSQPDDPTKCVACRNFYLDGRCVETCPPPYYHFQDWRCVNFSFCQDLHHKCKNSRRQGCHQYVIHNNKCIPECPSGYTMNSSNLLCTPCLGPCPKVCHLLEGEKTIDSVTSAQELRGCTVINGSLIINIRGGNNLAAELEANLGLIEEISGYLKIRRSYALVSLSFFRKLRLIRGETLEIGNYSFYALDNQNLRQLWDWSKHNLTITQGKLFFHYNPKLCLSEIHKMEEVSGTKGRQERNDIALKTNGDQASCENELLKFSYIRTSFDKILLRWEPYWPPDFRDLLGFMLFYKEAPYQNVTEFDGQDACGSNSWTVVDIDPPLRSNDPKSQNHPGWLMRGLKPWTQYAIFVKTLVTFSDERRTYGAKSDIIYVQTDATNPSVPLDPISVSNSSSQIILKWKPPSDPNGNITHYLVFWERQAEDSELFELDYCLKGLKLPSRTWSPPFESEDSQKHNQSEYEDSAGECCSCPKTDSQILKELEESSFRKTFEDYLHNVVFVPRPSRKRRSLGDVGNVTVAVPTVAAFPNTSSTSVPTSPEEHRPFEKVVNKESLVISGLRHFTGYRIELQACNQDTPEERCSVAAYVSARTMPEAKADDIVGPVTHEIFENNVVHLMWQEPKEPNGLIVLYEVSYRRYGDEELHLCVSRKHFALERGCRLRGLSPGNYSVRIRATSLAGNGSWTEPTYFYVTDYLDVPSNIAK

mIgG1 (antibody): the D.O 450 nm in experiment [1] amounted to 0.127 D.O 450 nm; in experiment [2], 0.116 D.O 450 nm; in experiment [3], 0.093 D.O 450 nm.
